The source of these data is US20250051476A1 (ABDERA THERAPEUTICS, published 2025).

One experiment concerns the target T1, human DLL3 (human, UniProt Q9NYJ7 27-492, limits assumed).
T1 construct: also called hDLL3; Delta-like protein 3
T1 sequence (looked up): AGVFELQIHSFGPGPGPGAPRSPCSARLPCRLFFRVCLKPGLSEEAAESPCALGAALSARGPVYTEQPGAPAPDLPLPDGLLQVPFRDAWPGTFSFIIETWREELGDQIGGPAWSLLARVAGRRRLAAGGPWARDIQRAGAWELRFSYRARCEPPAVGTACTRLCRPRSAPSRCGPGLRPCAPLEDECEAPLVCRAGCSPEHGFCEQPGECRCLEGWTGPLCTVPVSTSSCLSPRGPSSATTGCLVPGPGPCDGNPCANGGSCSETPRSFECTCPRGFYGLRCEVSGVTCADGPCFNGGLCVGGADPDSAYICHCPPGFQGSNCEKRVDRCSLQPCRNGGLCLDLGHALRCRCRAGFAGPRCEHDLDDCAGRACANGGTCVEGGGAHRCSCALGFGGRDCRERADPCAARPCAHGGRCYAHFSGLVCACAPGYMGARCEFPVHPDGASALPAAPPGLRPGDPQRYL
As to the kind of experiment: ELISA.

The next experiment addresses T2, mouse DLL3 (mouse, UniProt O88516 25-477, limits assumed).
T2 construct: also called mDLL3; murine DLL3
T2 sequence (looked up): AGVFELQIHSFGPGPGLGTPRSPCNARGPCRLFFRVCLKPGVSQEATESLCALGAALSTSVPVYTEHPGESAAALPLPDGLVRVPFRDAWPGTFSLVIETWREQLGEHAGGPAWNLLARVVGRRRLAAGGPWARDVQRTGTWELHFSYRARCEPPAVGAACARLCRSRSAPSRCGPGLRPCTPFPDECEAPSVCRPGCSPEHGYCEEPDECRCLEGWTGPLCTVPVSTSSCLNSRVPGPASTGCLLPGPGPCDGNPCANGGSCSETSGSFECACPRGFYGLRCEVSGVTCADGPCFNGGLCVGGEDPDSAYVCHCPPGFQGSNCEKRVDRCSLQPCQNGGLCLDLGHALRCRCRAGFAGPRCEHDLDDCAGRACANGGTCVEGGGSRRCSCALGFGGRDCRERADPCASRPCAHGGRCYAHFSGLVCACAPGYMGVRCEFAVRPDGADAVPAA
The experiment can be described thus: ELISA. A general note: In an ELISA, binding on a coated surface is turned into a signal by an enzyme label.

B1: 186_zu3 (Fc fusion)
chain: QVQLVESGGGLVQPGGSLRLSCAASGFDFSTYTVNWYRQAPGQGLEKVARISSTGTTTNYANSAKGRFTISRDNSKNTLYLQMNSLRAEDTAVYYCAAERFDSNYWGQGTLVTVSSEPKSSDKTHTCPPCPAPEAEGAPSVFLFPPKPKDTLMISRTPEVTCVVVDVSHEDPEVKFNWYVDGVEVHNAKTKPREEQYNSTYRVVSVLTVLHQDWLNGKEYKCKVSNKALPSSIEKTISKAKGQPREPQVYTLPPSREEMTKNQVSLTCLVKGFYPSDIAVEWESNGQPENNYKTTPPVLDSDGSFFLYSKLTVDKSRWQQGNVFSCSVMHEALHNQYTQKSLSLSPG
notes: Humanized VHH-Fc
In the case of B1, the binding result is “binds” in the experiment with human DLL3 and “no binding” in the experiment with mouse DLL3.

B2: 186_zu4 (Fc fusion)
chain: QVQLVESGGGLVQPGGSLRLSCAASGFDFSTYTVNWYRQAPGQEREKVARISSTGTTTNYANSAKGRFTISRDNSKNTLYLQMNSLRAEDTAVYYCAAERFDSNYWGQGTLVTVSSEPKSSDKTHTCPPCPAPEAEGAPSVFLFPPKPKDTLMISRTPEVTCVVVDVSHEDPEVKFNWYVDGVEVHNAKTKPREEQYNSTYRVVSVLTVLHQDWLNGKEYKCKVSNKALPSSIEKTISKAKGQPREPQVYTLPPSREEMTKNQVSLTCLVKGFYPSDIAVEWESNGQPENNYKTTPPVLDSDGSFFLYSKLTVDKSRWQQGNVFSCSVMHEALHNQYTQKSLSLSPG
notes: Humanized VHH-Fc
As for B2, the figures for the binding result in the experiment with human DLL3 and with mouse DLL3 were “binds” and “no binding”, respectively.

B3: 186_zu5 (Fc fusion)
chain: QVQLVESGGGLVQPGGSLRLSCAASGFDFSTYTVNWYRQAPGKEREKVARISSTGTTTNYANSAKGRFTISRDNSKNTLYLQMNSLRAEDTAVYYCAAERFDSNYWGQGTLVTVSSEPKSSDKTHTCPPCPAPEAEGAPSVFLFPPKPKDTLMISRTPEVTCVVVDVSHEDPEVKFNWYVDGVEVHNAKTKPREEQYNSTYRVVSVLTVLHQDWLNGKEYKCKVSNKALPSSIEKTISKAKGQPREPQVYTLPPSREEMTKNQVSLTCLVKGFYPSDIAVEWESNGQPENNYKTTPPVLDSDGSFFLYSKLTVDKSRWQQGNVFSCSVMHEALHNQYTQKSLSLSPG
notes: Humanized VHH-Fc
Consider B3, for which the binding result with human DLL3 is “binds”; with mouse DLL3 it was “no binding”.

B4: 100_zu4 (Fc fusion)
chain: QVQLVESGGGLVQPGGSLRLSCAASGIVFNSDVMGWYRQAPGQPRELVATITGGGSTNYATSVKGRFTISRDNSKNTLYLQMNSLRAEDTAVYYCAARRGDSMLAFWGQGTLVTVSSEPKSSDKTHTCPPCPAPEAEGAPSVFLFPPKPKDTLMISRTPEVTCVVVDVSHEDPEVKFNWYVDGVEVHNAKTKPREEQYNSTYRVVSVLTVLHQDWLNGKEYKCKVSNKALPSSIEKTISKAKGQPREPQVYTLPPSREEMTKNQVSLTCLVKGFYPSDIAVEWESNGQPENNYKTTPPVLDSDGSFFLYSKLTVDKSRWQQGNVFSCSVMHEALHNQYTQKSLSLSPG
notes: Humanized VHH-Fc
B4: the binding result with human DLL3 and with mouse DLL3 was “no binding” throughout.

B5: 100_zu2 (Fc fusion)
chain: QVQLVESGGGLVQPGGSLRLSCAASGIVFNSDVMGWFRQAPGQGLELVATITGGGSTNYATSVKGRFTISRDNSKNTLYLQMNSLRAEDTAVYYCAARRGDSMLAFWGQGTLVTVSSEPKSSDKTHTCPPCPAPEAEGAPSVFLFPPKPKDTLMISRTPEVTCVVVDVSHEDPEVKFNWYVDGVEVHNAKTKPREEQYNSTYRVVSVLTVLHQDWLNGKEYKCKVSNKALPSSIEKTISKAKGQPREPQVYTLPPSREEMTKNQVSLTCLVKGFYPSDIAVEWESNGQPENNYKTTPPVLDSDGSFFLYSKLTVDKSRWQQGNVFSCSVMHEALHNQYTQKSLSLSPG
notes: Humanized VHH-Fc
For B5, the binding result with human DLL3 and in the experiment with mouse DLL3 was “no binding” in each case.

B6: 100_zu3 (Fc fusion)
chain: QVQLVESGGGLVQPGGSLRLSCAASGIVFNSDVMGWYRQAPGQGLELVATITGGGSTNYATSVKGRFTISRDNSKNTLYLQMNSLRAEDTAVYYCAARRGDSMLAFWGQGTLVTVSSEPKSSDKTHTCPPCPAPEAEGAPSVFLFPPKPKDTLMISRTPEVTCVVVDVSHEDPEVKFNWYVDGVEVHNAKTKPREEQYNSTYRVVSVLTVLHQDWLNGKEYKCKVSNKALPSSIEKTISKAKGQPREPQVYTLPPSREEMTKNQVSLTCLVKGFYPSDIAVEWESNGQPENNYKTTPPVLDSDGSFFLYSKLTVDKSRWQQGNVFSCSVMHEALHNQYTQKSLSLSPG
notes: Humanized VHH-Fc
Consider B6, for which the binding result with human DLL3 and with mouse DLL3 was “no binding” in each case.

B7: 107_zu1 (Fc fusion)
chain: QVQLVESGGGLVQPGGSLRLSCAASDRTFSSYAVGWFRQAPGQGLEAVAAISWNGGRTLYTDSVTGRFTISRDNSKNTLYLQMNSLRAEDTAVYYCAARPAAPTRRLEYDYWGQGTLVTVSSEPKSSDKTHTCPPCPAPEAEGAPSVFLFPPKPKDTLMISRTPEVTCVVVDVSHEDPEVKFNWYVDGVEVHNAKTKPREEQYNSTYRVVSVLTVLHQDWLNGKEYKCKVSNKALPSSIEKTISKAKGQPREPQVYTLPPSREEMTKNQVSLTCLVKGFYPSDIAVEWESNGQPENNYKTTPPVLDSDGSFFLYSKLTVDKSRWQQGNVFSCSVMHEALHNQYTQKSLSLSPG
notes: Humanized VHH-Fc
Consider B7, for which the binding result in the experiment with human DLL3 was “binds”.

B8: 24_zu4 (Fc fusion)
chain: QVQLVESGGGLVQPGGSLRLSCAASGFTFSSYRINWYRQAPGQGRELVASITDTGSTNYADSVKGRFTISRDNSKNTLYLQMNSLRAEDTAVYYCAAPTIAAYWGQGTLVTVSSEPKSSDKTHTCPPCPAPEAEGAPSVFLFPPKPKDTLMISRTPEVTCVVVDVSHEDPEVKFNWYVDGVEVHNAKTKPREEQYNSTYRVVSVLTVLHQDWLNGKEYKCKVSNKALPSSIEKTISKAKGQPREPQVYTLPPSREEMTKNQVSLTCLVKGFYPSDIAVEWESNGQPENNYKTTPPVLDSDGSFFLYSKLTVDKSRWQQGNVFSCSVMHEALHNQYTQKSLSLSPG
notes: Humanized VHH-Fc
Consider B8, for which the binding result in the experiment with human DLL3 and with mouse DLL3 was “no binding” in each case.

B9: 24_zu1 (Fc fusion)
chain: QVQLVESGGGLVQPGGSLRLSCAASGFTFSSYRINWFRQAPGQGLEAVASITDTGSTNYADSVKGRFTISRDNSKNTLYLQMNSLRAEDTAVYYCAAPTIAAYWGQGTLVTVSSEPKSSDKTHTCPPCPAPEAEGAPSVFLFPPKPKDTLMISRTPEVTCVVVDVSHEDPEVKFNWYVDGVEVHNAKTKPREEQYNSTYRVVSVLTVLHQDWLNGKEYKCKVSNKALPSSIEKTISKAKGQPREPQVYTLPPSREEMTKNQVSLTCLVKGFYPSDIAVEWESNGQPENNYKTTPPVLDSDGSFFLYSKLTVDKSRWQQGNVFSCSVMHEALHNQYTQKSLSLSPG
notes: Humanized VHH-Fc
In the case of B9, in the experiment with human DLL3, the binding result is “binds”.

B10: 24_zu3 (Fc fusion)
chain: QVQLVESGGGLVQPGGSLRLSCAASGFTFSSYRINWYRQAPGQGLELVASITDTGSTNYADSVKGRFTISRDNSKNTLYLQMNSLRAEDTAVYYCAAPTIAAYWGQGTLVTVSSEPKSSDKTHTCPPCPAPEAEGAPSVFLFPPKPKDTLMISRTPEVTCVVVDVSHEDPEVKFNWYVDGVEVHNAKTKPREEQYNSTYRVVSVLTVLHQDWLNGKEYKCKVSNKALPSSIEKTISKAKGQPREPQVYTLPPSREEMTKNQVSLTCLVKGFYPSDIAVEWESNGQPENNYKTTPPVLDSDGSFFLYSKLTVDKSRWQQGNVFSCSVMHEALHNQYTQKSLSLSPG
notes: Humanized VHH-Fc
For B10, the binding result in the experiment with human DLL3 and with mouse DLL3 was “no binding” each time.

B11: 24_zu2 (Fc fusion)
chain: QVQLVESGGGLVQPGGSLRLSCAASGFTFSSYRINWFRQAPGQGLELVASITDTGSTNYADSVKGRFTISRDNSKNTLYLQMNSLRAEDTAVYYCAAPTIAAYWGQGTLVTVSSEPKSSDKTHTCPPCPAPEAEGAPSVFLFPPKPKDTLMISRTPEVTCVVVDVSHEDPEVKFNWYVDGVEVHNAKTKPREEQYNSTYRVVSVLTVLHQDWLNGKEYKCKVSNKALPSSIEKTISKAKGQPREPQVYTLPPSREEMTKNQVSLTCLVKGFYPSDIAVEWESNGQPENNYKTTPPVLDSDGSFFLYSKLTVDKSRWQQGNVFSCSVMHEALHNQYTQKSLSLSPG
notes: Humanized VHH-Fc
As for B11, the binding result with human DLL3 and in the experiment with mouse DLL3 was “no binding” throughout.

B12: 24_zu5 (Fc fusion)
chain: QVQLVESGGGLVQPGGSLRLSCAASGFTFSSYRINWYRQPPGKGRELVGSITDTGSTNYADSVKGRFTISRDNSKNTLYLQMNSLRAEDTAVYYCAAPTIAAYWGQGTLVTVSSEPKSSDKTHTCPPCPAPEAEGAPSVFLFPPKPKDTLMISRTPEVTCVVVDVSHEDPEVKFNWYVDGVEVHNAKTKPREEQYNSTYRVVSVLTVLHQDWLNGKEYKCKVSNKALPSSIEKTISKAKGQPREPQVYTLPPSREEMTKNQVSLTCLVKGFYPSDIAVEWESNGQPENNYKTTPPVLDSDGSFFLYSKLTVDKSRWQQGNVFSCSVMHEALHNQYTQKSLSLSPG
notes: Humanized VHH-Fc
As for B12, the binding result in the experiment with human DLL3 and with mouse DLL3 was “no binding” each time.
